Test results published in US20260250737A1, “Engineered Luciferases and Luciferin Substrates” (Monod Bio, Inc., priority 2023, published 2026).
Changes are numbered by the printed parent chain.

B1: 5105 (protein)
chain: MTPEEIIANVKKFYEALASGDLATAKSLFDPGTTITLWDGTTFTSLEEFLAWFEKQFKASKDAKREIVSIEVDGNVVKVLVRLTYTVDGKEKVVDLLQLLKFV
B2: 5289 (protein)
chain: MTPEEIRANVERFYAALASGDLAAAKALFDPGVTITLWDGTTFTSVEEFRAWFEEQFQTSKDALREIVSMEIDGDTVRVLVRLTFVRDGEEQEVDLLQLFKFV
B3: 5290 (protein)
chain: MTPEEIIENVRRFYAALASGDLETAKSLFDPGVTITLWDGTTFTSVEEFRAWFEAQFQTSKDALREIVSIEVEGDVVRVLVRLTFTRDGQTQEVDLLQLFKFV
B4: 5291 (protein)
chain: B2 chain with A8E, E11R, A23E, A24T, D73E, T76V, E90K, Q92E, E93V
B5: 5292 (protein)
chain: MTPEEIIENVKNFYAALASGDLEKAKALFDPGVTITLWDGTTFTSVEEFRKWFEEQFKTSKDALREIKSIEVEGDVVRVLVRLTFVRDGEVQEVDLLQLFKFV
B6: 5293 (protein)
chain: B2 chain with E11R, A24T, K26E, E47A, E55K, Q58K, V68E, D73E, E90K, E93V
B7: 5294 (protein)
chain: MTPEEIRANVRAFYAALASGDLEAAKALFDPGVTITLWDGTTFTSVEEFRAWFEEQFQTSKDALREIESLEVEGDVVRVLVRLTFTRDGKVEEVDLLQLFKFV
B8: 5295 (protein)
chain: B2 chain with E11R, R12A, Q58E, I72V, D73E, V86T, D88N, Q92K, E93V
B9: 5101 (protein)
chain: MSEEQIRQNLRRFYEALDSGDAITAASLFDPGVTITLWDGTTFTSVEEFREWFESQFSTSKDALREISSLEVRGDTVEVTVRLSFTRNGQKHTVDLLQLFKFVGGGGGGNRVVADRVYVNPTG
B10: 5102 (protein)
chain: MSEEQIRQNLRRFYEALDSGDAITAASLFDPGVTITLWDGTTFTSVEEFREWFESQFSTSKDALREISSLEVRGDTVEVTVRLSFTRNGQKHTVDLLQLFKFVGNRVVADRVYVNPTG
B11: 5106 (protein)
chain: B1 chain with P3E, K11E, E15A, A23E, S27A, D73E, N75D, V76T
B12: 5107 (protein)
chain: MTPEEIKANVEAFYAALASGDLEKAKALFDPGTTITLWDGTTFTSLEEFLAWFEKQFKASKDAKREIVSMKVEGDTVRVLVRLTYTKDGKEQVVDLLQLIKVV
B13: 5108 (protein)
chain: MTPEEIIENVKAFYAALASGDLEAAKALFDPGTTITLWDGTTFTSLEEFLEWFEKQFEASKDAKREIKSIEVEGNVVKVLVRLTYVKDGKEKVVDLLQLLKFV
B14: 5109 (protein)
chain: B12 chain with K7R, E11K, K71E, V72I, E73N, K87V, K90E, Q92K, I100L, V102F
B15: 5110 (protein)
chain: B13 chain with A12K, A15E, A24T, A27S, K68L, V86T
B16: 5111 (protein)
chain: MTPEEIRANVEAFYAALASGDLEAAKALFDPGTTITLWDGTTFTSLEEFLAWFEKQFETSKDAKREIVSLEIEGDTVRVLVRLTYTKNGEVKEVDLLQLLKFV
B17: 5112 (protein)
chain: B13 chain with I7R, E8A, K11R, E51A, E58K, K68V, I70L, N75D, K78R, K92E
B18: 5113 (protein)
chain: B16 chain with T59A, V68L, D75N, N88D, E90K, V91E, K92Q, E93V
B19: 5114 (protein)
chain: B1 chain with K12N, E15A, A23E, T24A, S27A, I70M, D73E, K90E
B20: 5115 (protein)
chain: B13 chain with E8A, A12K, A24T, E51A, K68V, E73K, V76T, K92Q
B21: 5116 (protein)
chain: MTPEEIRANVERFYAALASGDLDTAKALFDPGTTITLWDGTTFTSLEEFLAWFEKQFKASKDAKREIVELEIEGNVVRVLVRLTYVKDGKEQVVDLLQLLKFV
B22: 5117 (protein)
chain: B12 chain with P3D, K7R, E11R, K24T, A59T, M70L, K71E, Q92E, I100L, V102F
B23: 5118 (protein)
chain: B1 chain with K12A, E15A, T24A, S27A, E47D, V68L, S69D, D73E, N75D, K78R
B24: 5119 (protein)
chain: B16 chain with E5Q, A12R, A24T, E58K, T59A, K87V, N88D
B25: 5120 (protein)
chain: MTPEEIRENVLRFYEALASGDLETAKALFDPGTTITLWDGTTFTSLEEFLAWFEEQFDTSKDAKREILSLEIEGDVVRVLVRLTYVKDGEEKVVDLLQLLKWV
B26: 5121 (protein)
chain: MTPEEIKENVKKFYEALASGDLETAKSLFDPGTTITLWDGTTFTSLEEFLAWFEKQFDASKDAKREIVSMEIKGNEVKVLVRLTYTKDGKEQTVDLLQLLKFV
B27: 5122 (protein)
chain: B12 chain with K7F, E11K, E23A, K24A, E47D, V68L, K71E, T86V, Q92E, V102W
B28: 5123 (protein)
chain: MTPEKIRENVENFYAALASGDLEKAKALFDPGTTITLWDGTTFTSLEEFLAWFEKQFKASKDAKREIKSLEIEGDTVKVLVRLTYTVNGKEKTVDLLQLLKFV
B29: 5124 (protein)
chain: B12 chain with K7I, E11R, K24A, K58D, M70I, K71E, I100L, V102F

System: SmLux
Test: Computationally generated LgLux variants expressed in E. coli, tested in lysates with SmLux and substrate 1c
Type: biochemical
Conditions: 50 uM substrate 1c; for Fold change upon SmLux peptide addition: 20 uM SmLux; for Baseline Signal (Normalized by expression): before SmLux peptide addition
Protocol: LgLux sequences were designed computationally, and their activity measured as depicted schematically in FIG. 45.
A library of the computationally generated LgLux variants were expressed in E. coli and tested in lysates. 20 uM of SmLux and 50 uM of substrate 1c was used for the screening.
LgLux_4039 sequence is as set forth in SEQ ID NO:2773. MBIO-5103 through MBIO-5124, MBIO-5261 through MBIO-5295, MBIO-5101, and MBIO-5102 (SEQ ID NO:2815-SEQ ID NO:2873, respectively) are computationally generated LgLux. The sequences and activity of these LgLux are shown below in Table 21.
MBIO-5358 and MBIO-5360 through MBIO-5381 (SEQ ID NO:2774-SEQ ID NO:2796, respectively) are computationally generated LgLux.

Molecule	Fold change upon SmLux peptide addition	Baseline Signal (Normalized by expression)
B1	1	167.4
B2	1.92	173.8
B3	1.11	162.2
B4	1.02	170.2
B5	6.75	168.6
B6	3.78	166.2
B7	1.46	175.2
B8	1.28	186.4
B9	0.87	229.6
B10	2.2	2169.2
B11	1	169.8
B12	0.99	167.8
B13	0.92	167.4
B14	0.98	169
B15	0.97	167.6
B16	1.01	166.2
B17	0.93	174.4
B18	1.15	180.6
B19	1.38	271.8
B20	3.07	165
B21	1.11	162.6
B22	1.05	154.8
B23	1.05	152
B24	0.98	155.6
B25	1.09	148.4
B26	1.29	126.6
B27	1.04	146.2
B28	1.09	145.6
B29	1.07	187.6
